How the values were obtained:
Experiment in all cases: ITC; β16β17 at 25–50 μM in the cell titrated with 15–20 injections to 2–2.5 eq of α0α1; one-site binding model; PBS (50 mM sodium phosphate, 150 mM NaCl, pH 7.04), 25 °C; mutants only against the wild-type partner
Conditions in all cases: both partners purified
β16β17 F62A = target: T1, β16β17 F62A (human, UniProt P11277 1898-2083, F2065A)
T1 construct: erythrocyte β-spectrin, human, residues 1898-2083 (β16β17); mutant of m2; also called F2065A; source: E. coli C41(DE3), purified (Ni2+ agarose, thrombin cleavage, gel filtration)
T1 sequence (looked up): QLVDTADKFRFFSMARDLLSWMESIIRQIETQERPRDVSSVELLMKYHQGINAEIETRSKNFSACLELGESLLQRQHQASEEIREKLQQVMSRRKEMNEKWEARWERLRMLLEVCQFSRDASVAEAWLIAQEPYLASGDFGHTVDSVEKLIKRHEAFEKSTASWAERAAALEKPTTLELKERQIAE

β16β17 A18G = target: T2, β16β17 A18G (human, UniProt P11277 1898-2083, A2021G)
T2 construct: erythrocyte β-spectrin, human, residues 1898-2083 (β16β17); mutant of m2; also called A2021G; source: E. coli C41(DE3), purified (Ni2+ agarose, thrombin cleavage, gel filtration)
T2 sequence (looked up): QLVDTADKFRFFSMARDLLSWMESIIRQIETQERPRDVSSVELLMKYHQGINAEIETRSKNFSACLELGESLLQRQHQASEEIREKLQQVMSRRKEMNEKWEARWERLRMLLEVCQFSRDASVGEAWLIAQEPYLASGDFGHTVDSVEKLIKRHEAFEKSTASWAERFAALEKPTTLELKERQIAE

β16β17 Y28A = target: T3, β16β17 Y28A (human, UniProt P11277 1898-2083, Y2031A)
T3 construct: erythrocyte β-spectrin, human, residues 1898-2083 (β16β17); mutant of m2; also called Y2031A; source: E. coli C41(DE3), purified (Ni2+ agarose, thrombin cleavage, gel filtration)
T3 sequence (looked up): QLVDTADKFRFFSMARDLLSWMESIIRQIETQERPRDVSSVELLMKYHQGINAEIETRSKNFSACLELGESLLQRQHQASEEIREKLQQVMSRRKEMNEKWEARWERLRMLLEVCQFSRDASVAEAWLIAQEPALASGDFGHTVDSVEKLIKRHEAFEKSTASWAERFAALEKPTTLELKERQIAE

β16β17 F11L = target: T4, β16β17 F11L (human, UniProt P11277 1898-2083, F2014L)
T4 construct: erythrocyte β-spectrin, human, residues 1898-2083 (β16β17); mutant of m2; also called F2014L; source: E. coli C41(DE3), purified (Ni2+ agarose, thrombin cleavage, gel filtration)
T4 sequence (looked up): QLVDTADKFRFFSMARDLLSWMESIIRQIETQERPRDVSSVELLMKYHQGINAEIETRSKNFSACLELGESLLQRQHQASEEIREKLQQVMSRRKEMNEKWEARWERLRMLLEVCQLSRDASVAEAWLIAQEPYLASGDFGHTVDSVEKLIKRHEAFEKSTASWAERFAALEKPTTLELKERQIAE

β16β17 L29A = target: T5, β16β17 L29A (human, UniProt P11277 1898-2083, L2032A)
T5 construct: erythrocyte β-spectrin, human, residues 1898-2083 (β16β17); mutant of m2; also called L2032A; source: E. coli C41(DE3), purified (Ni2+ agarose, thrombin cleavage, gel filtration)
T5 sequence (looked up): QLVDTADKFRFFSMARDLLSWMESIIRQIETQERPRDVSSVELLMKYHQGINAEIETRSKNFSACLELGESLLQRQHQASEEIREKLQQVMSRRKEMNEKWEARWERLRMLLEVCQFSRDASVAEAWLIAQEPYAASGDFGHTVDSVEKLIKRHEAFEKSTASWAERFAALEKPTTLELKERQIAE

β16β17 Q25A = target: T6, β16β17 Q25A (human, UniProt P11277 1898-2083, Q2028A)
T6 construct: erythrocyte β-spectrin, human, residues 1898-2083 (β16β17); mutant of m2; also called Q2028A; source: E. coli C41(DE3), purified (Ni2+ agarose, thrombin cleavage, gel filtration)
T6 sequence (looked up): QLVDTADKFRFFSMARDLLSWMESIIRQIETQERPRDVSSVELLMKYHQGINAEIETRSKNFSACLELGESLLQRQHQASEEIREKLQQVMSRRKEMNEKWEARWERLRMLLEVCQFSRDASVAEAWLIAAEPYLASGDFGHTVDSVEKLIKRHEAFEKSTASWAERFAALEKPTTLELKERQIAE

Ka (β16β17 F62A): 13000 M⁻¹ | Ka (β16β17 A18G): 130000 M⁻¹ | Ka (β16β17 Y28A): 180000 M⁻¹ | Ka (β16β17 F11L): 16000 M⁻¹ | Ka (β16β17 L29A): 290000 M⁻¹ | Ka (β16β17 Q25A): 120000 M⁻¹
B1: α0α1 (erythrocyte α-spectrin residues 2–163), wild type (domain or fragment, human, UniProt P02549 2-163, looked up)
chain: EQFPKETVVESSGPKVLETAEEIQERRQEVLTRYQSFKERVAERGQKLEDSYHLQVFKRDADDLGKWIMEKVNILTDKSYEDPTNIQGKYQKHQSLEAEVQTKSRLMSELEKTREERFTMGHSAHEETKAHIEELRHLWDLLLELTLEKGDQLLRALKFQQY
notes: synthetic gene (GenScript) in a modified pRSETA plasmid; also called α1α0; source: E. coli C41(DE3), purified (Ni2+ agarose, thrombin cleavage, gel filtration)

— PMC9082959, “Mechanism of Assembly of the Non-Covalent Spectrin Tetramerization Domain from Intrinsically Disordered Partners” (Journal of molecular biology, 2013)
